Experimental data taken from patent publication US6410715 (QUESTCOR PHARMACEUTICALS, dated 2002).

Legend:
[1] = target: eIF-4E of human HTK-143 cells (human) (UniProt P06730); test: cell-based or functional assay
[2] = target: 4E-BP1 prepared from insulin-treated rat adipose tissue (rat) (UniProt Q62622); test: far-Western on blotted heat-stable adipose tissue proteins, pool 1, insulin 80 nM
[3] = target: 4E-BP1 prepared from untreated rat adipose tissue (rat) (UniProt Q62622); test: far-Western on blotted heat-stable adipose tissue proteins, pool 2, no insulin
Sequence of 4E-BP1 prepared from untreated rat adipose tissue (rat) (Q62622 2-117 limits assumed): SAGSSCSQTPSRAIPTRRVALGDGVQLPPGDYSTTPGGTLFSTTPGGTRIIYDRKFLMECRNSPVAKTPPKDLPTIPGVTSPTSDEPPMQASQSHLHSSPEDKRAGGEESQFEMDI

[4] = target: 4E-BP1 prepared from insulin-treated rat adipose tissue (rat) (UniProt Q62622); test: far-Western, pool 2, insulin-treated against untreated tissue of the same pool
[5] = target: 4E-BP1 prepared from insulin-treated rat adipose tissue (rat) (UniProt Q62622); test: far-Western on blotted heat-stable adipose tissue proteins, pool 3, insulin 80 nM
[6] = target: 4E-BP1 prepared from insulin-treated rat adipose tissue (rat) (UniProt Q62622); test: far-Western, pool 3, insulin-treated against untreated tissue of the same pool
[7] = target: 4E-BP1 prepared from untreated rat adipose tissue (rat) (UniProt Q62622); test: far-Western on blotted heat-stable adipose tissue proteins, pool 3, no insulin
[8] = target: 4E-BP1 prepared from insulin-treated rat adipose tissue (rat) (UniProt Q62622); test: far-Western, pool 1, insulin-treated against untreated tissue of the same pool
[9] = target: 4E-BP1 prepared from insulin-treated rat adipose tissue (rat) (UniProt Q62622); test: far-Western on blotted heat-stable adipose tissue proteins, pool 2, insulin 80 nM
[10] = target: 4E-BP1 prepared from untreated rat adipose tissue (rat) (UniProt Q62622); test: far-Western on blotted heat-stable adipose tissue proteins, pool 1, no insulin
[11] = target: eIF-4E of rabbit reticulocyte lysate (rabbit, UniProt P29338 2-217); test: cell-based or functional assay
Sequence of eIF-4E of rabbit reticulocyte lysate (P29338 2-217 limits assumed): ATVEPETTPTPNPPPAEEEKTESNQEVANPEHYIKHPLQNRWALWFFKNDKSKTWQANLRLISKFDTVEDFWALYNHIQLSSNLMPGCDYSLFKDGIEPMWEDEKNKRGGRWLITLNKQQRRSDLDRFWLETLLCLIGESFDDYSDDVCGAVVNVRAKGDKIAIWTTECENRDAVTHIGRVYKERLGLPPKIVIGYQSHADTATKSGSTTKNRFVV

Sequence of 4E-BP1 prepared from insulin-treated rat adipose tissue (rat) (Q62622 2-117 limits assumed): as the sequence (Q62622 2-117 limits assumed) above
Sequence of eIF-4E of human HTK-143 cells (human) (P06730 2-217 limits assumed): as the sequence (P29338 2-217 limits assumed) above, with P15T, A16T, D173E counted along it

Molecule: 4E-BP2 (human, protein of 120 amino acids)
- CAT (%), cap-dependent expression from pGEMCAT/EMC/LUC in HTK-143 cells co-transfected with pRc/CMV/4E-BP2 (% of reporter plasmid alone) [1]: 26
- CAT (%), cap-dependent expression from pGEMCAT/polio/LUC in HTK-143 cells co-transfected with pRc/CMV/4E-BP2 (% of reporter plasmid alone) [1]: 24
- inhibition of CAT expression in transfected HTK-143 cells [1]: 4 to 5 fold

Molecule: 4E-BP1 (human, protein of 118 amino acids)
- CAT (%), cap-dependent expression from pGEMCAT/EMC/LUC in HTK-143 cells co-transfected with pRc/CMV/4E-BP1 (% of reporter plasmid alone) [1]: 28
- CAT (%), cap-dependent expression from pGEMCAT/polio/LUC in HTK-143 cells co-transfected with pRc/CMV/4E-BP1 (% of reporter plasmid alone) [1]: 22
- inhibition of CAT expression in transfected HTK-143 cells [1]: 4 to 5 fold

Molecule: 32P-labelled HMK-eIF-4E probe
- Relative amount of HMK-eIF-4E bound (relative amount (Phosphorimager)) [2]: 41
- Relative amount of HMK-eIF-4E bound (relative amount (Phosphorimager)) [3]: 210
- Fold reduction [4]: 3 fold
- Relative amount of HMK-eIF-4E bound (relative amount (Phosphorimager)) [5]: 60
- Fold reduction [6]: 3.6 fold
- Relative amount of HMK-eIF-4E bound (relative amount (Phosphorimager)) [7]: 214
- Fold reduction [8]: 3.7 fold
- Relative amount of HMK-eIF-4E bound (relative amount (Phosphorimager)) [9]: 70
- Relative amount of HMK-eIF-4E bound (relative amount (Phosphorimager)) [10]: 152

B1: GST-4E-BP2 fusion protein (other, not shown: a dimerising Fc or GST; large carriers; small tags and cut ends)
chain: MSSSAGSGHQPSQSRAIPTRTVAISDAAQLPHDYCTTPGGTLFSTTPGGTRIIYDRKFLLDRRNSPMAQTPPCHLPNIPGVTSPGTLIEDSKVEVNNLNNLNNHDRKHAVGDDAQFEMDI
- inhibition of translation of CAT (cap-dependent) [11]: ~5 fold
